Results on one substance are retold here after patent publication US20240279290A1.

In this experiment the target is human CD40 on primary human B cells or monocyte-derived dendritic cells (human) (UniProt P25942). Kind of experiment: cell-based or functional assay.

Where “and” joins values, the source holds several entries; their conditions need not be identical. Equal values may be shown once.

Chain of human CD40 on primary human B cells or monocyte-derived dendritic cells (human) (P25942 21-277 H80K/K81H limits assumed): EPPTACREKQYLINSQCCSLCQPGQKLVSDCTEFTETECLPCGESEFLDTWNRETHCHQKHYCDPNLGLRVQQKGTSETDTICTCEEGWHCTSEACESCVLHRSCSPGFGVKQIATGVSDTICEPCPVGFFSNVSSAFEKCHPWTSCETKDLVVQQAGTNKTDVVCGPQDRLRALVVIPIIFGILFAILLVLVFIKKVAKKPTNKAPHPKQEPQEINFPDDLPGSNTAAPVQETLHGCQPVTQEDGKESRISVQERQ

Take “anti-CD40 monoclonal antibody corresponding to sequence 21.4.1 of U.S. Pat. No. 7,338,660 B2”: the EC50 [nM], % CD86, human B cells + FAP-CHO, w HSA was 0.88 nM and 0.3 nM; the EC50 [nM], % CD86, human B cells + FAP-CHO, w/o HSA is 1.9 nM and 0.51 nM; the EC50 [nM], MFI CD86, human B cells + FAP-CHO, w HSA is 0.51 nM and 2.05 nM; the EC50 [nM], MFI CD86, human B cells + FAP-CHO, w/o HSA was 1.13 nM and 4.73 nM. The Efficacy [MFI at highest dose], MFI CD86, human B cells + FAP-CHO, w HSA was 1530 MFI and 1870 MFI; the Efficacy [MFI at highest dose], MFI CD86, human B cells + FAP-CHO, w/o HSA is 1340 MFI and 2060 MFI; the Efficacy [MFI at highest dose], MFI CD86, human B cells + WT-CHO (no FAP), w HSA is 1900 MFI and 1470 MFI; the Efficacy [MFI at highest dose], MFI CD86, human B cells + WT-CHO (no FAP), w/o HSA was 2050 MFI and 1390 MFI.
